# Target: the molecule itself
# Test: SEC-MALS; purified Lip-VIN3VEL at increasing concentrations from 50 uM to 1250 uM; Superose6 Increase 10/300 column
row,Protein,binding result
1,"Lip-VIN3VEL (residues 500-603) wild type (domain or fragment, Arabidopsis thaliana, UniProt Q9FIE3 500-603, looked up, VIN3 VEL domain construct, Arabidopsis thaliana, residues 500-603; The end of the tag is read from the name Lip-VIN3VEL; also called WT VIN3VEL; 6xHisLip-tagged VIN3VEL; source: Escherichia coli, purified; not shown: 6xHis-Lip (lipoyl solubility tag), N-terminal, kept) GKQGGNKRFKSRTVSLNEKPEINNAANGVGDKDLGHIVKTIRCLEEEGHIDKSFRERFLTWYSLRATHREVRVVKIFVETFMEDLSSLGQQLVDTFSESILSKR",binds
2,"Lip-VIN3VEL (residues 500-603) I575T (domain or fragment, Arabidopsis thaliana, UniProt Q9FIE3 500-603, looked up, VIN3 VEL domain construct, Arabidopsis thaliana, residues 500-603, with I575 changed to the threonine found at the corresponding position of VRN5; The end of the tag is read from the name Lip-VIN3VEL; also called I575T mutant Lip-VIN3VEL; VIN3VEL I575T; source: Escherichia coli, purified; not shown: 6xHis-Lip (lipoyl solubility tag), N-terminal, kept) GKQGGNKRFKSRTVSLNEKPEINNAANGVGDKDLGHIVKTIRCLEEEGHIDKSFRERFLTWYSLRATHREVRVVKTFVETFMEDLSSLGQQLVDTFSESILSKR",binds

# Reference: paper PMC7618248, “VEL-dependent polymerization maintains the chromatin association of Polycomb proteins for the switch to epigenetic silencing” (Molecular cell, 2025)
